Experimental data published in PMC10815899.

Columns and labels:
[1] = molecular target: GAPDH present on the surface of N. glabratus cells (N. glabratus (endogenous in CBS138 / ATCC 2001)); test: SEC; Superdex 200 HR 10/50, calibrated with molecular mass standards, 0.5 mL/min; buffer 20 mM Tris-HCl pH 6.7 (methods) or 50 mM NaH2PO4, 150 mM NaCl pH 7.0
[2] = molecular target: epithelial adhesin 6 of N. glabratus (N. glabratus (endogenous)) (UniProt Q6FX55); test: BLI; Octet N1; Epa6 immobilised on an AR2G biosensor; NgGAPDH 100–1000 nM; Langmuir 1:1 model
[3] = molecular target: cytoplasmic Nakaseomyces glabratus glyceraldehyde 3-phosphate dehydrogenase (N. glabratus (endogenous in CBS138 / ATCC 2001)); test: SEC; Superdex 200 HR 10/50, calibrated with molecular mass standards, 0.5 mL/min; buffer 20 mM Tris-HCl pH 6.7 (methods) or 50 mM NaH2PO4, 150 mM NaCl pH 7.0
[4] = molecular target: vitronectin (Homo sapiens) (UniProt P04004); details: cited from earlier work
Chain of vitronectin (Homo sapiens) (P04004 399-478): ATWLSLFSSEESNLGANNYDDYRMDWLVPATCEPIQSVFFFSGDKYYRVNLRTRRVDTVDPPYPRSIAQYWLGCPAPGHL

[5] = molecular target: GAPDH present on the surface of N. glabratus cells (N. glabratus (endogenous in CBS138 / ATCC 2001)); test: whole-cell binding assay with antibody blocking (SA-HRP/TMB); C. albicans hyphae in MaxiSorp wells (10^6 cells per well) or N. glabratus cells in tubes (3 × 10^7 per tube), pre-incubated with polyclonal anti-ScGAPDH antibody (1 µg/mL), then 150 nM biotin-labeled VTR or HPG, 1 h at 37 °C
[6] = molecular target: GAPDH on the surface of C. albicans cells (C. albicans (endogenous in ATCC 10231)) (UniProt Q5ADM7); test: as above
[7] = molecular target: cytoplasmic Nakaseomyces glabratus glyceraldehyde 3-phosphate dehydrogenase (N. glabratus (endogenous in CBS138 / ATCC 2001)); test: BLI; Octet N1; GAPDH amine-coupled on an AR2G biosensor; VTR or HPG 31–500 nM in solution; Langmuir 1:1 model
[8] = molecular target: recombinant Candida albicans glyceraldehyde 3-phosphate dehydrogenase (C. albicans) (UniProt Q5ADM7); test: as above
[9] = molecular target: cytoplasmic Nakaseomyces glabratus glyceraldehyde 3-phosphate dehydrogenase (N. glabratus (endogenous in CBS138 / ATCC 2001)); test: SPR; Biacore 3000; GAPDH amine-coupled on a CM5 chip; VTR 10–500 nM, 30 µL/min, 25 °C, HBS buffer (10 mM HEPES, 150 mM NaCl, 0.005% P20, pH 7.4); Langmuir 1:1 model with baseline drift
[10] = molecular target: recombinant Candida albicans glyceraldehyde 3-phosphate dehydrogenase (C. albicans) (UniProt Q5ADM7); test: as above

Substance	percent decrease of binding to cells with anti-ScGAPDH antibody [5]	percent decrease of binding to cells with anti-ScGAPDH antibody [6]	Kd [7]	koff [7]	kon [7]	Kd [8]	koff [8]	kon [8]	also measured
GAPDH present on the surface of N. glabratus cells (enzyme)	–	–	–	–	–	–	–	–	stoichiometry N [1]: 4
cytoplasmic Nakaseomyces glabratus glyceraldehyde 3-phosphate dehydrogenase (enzyme)	–	–	–	–	–	–	–	–	Kd [2]: 7 to 14 nM; stoichiometry N [3]: 4
enolase (from UniProt P30575)	–	–	–	–	–	–	–	–	Kd [4]: 40 nM
human plasminogen (natural protein)	36%	19%	8.69 nM	0.000649 s⁻¹	74600 M⁻¹ s⁻¹	150 nM	0.00496 s⁻¹	33000 M⁻¹ s⁻¹	–
human vitronectin (natural protein)	12%	16%	33.9 nM	0.00172 s⁻¹	50700 M⁻¹ s⁻¹	20.6 nM	0.000799 s⁻¹	38900 M⁻¹ s⁻¹	Kd [9]: 48 nM; koff [9]: 0.00183 s⁻¹; kon [9]: 38100 M⁻¹ s⁻¹; Kd [10]: 44.2 nM; koff [10]: 0.000619 s⁻¹; kon [10]: 14000 M⁻¹ s⁻¹
